Measured values published in the supplement of paper PMC10724198.
± gives the standard deviation of the averaged measurements.
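Note: PSI is a weighted mean of sequencing reads over stability bins, variants kept only with over 10 reads, mCherry proximal and sfGFP distal, peptide attached via GGGS linker.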

The sequences below were run on Saccharomyces cerevisiae (assay: protein stability index of tFT-peptide fusion (C-terminal peptide) (PSI (0-1 scale)); higher = more stable (slower turnover)). Conditions: genetic background: wild type; temperature: 30 C.
For PRPVRPSPHPPP, the protein stability index was 0.689 ± 0.1. PRRPPPSPPVPP was tested, and the protein stability index was 0.532 ± 0.03. PRRQCIRAPCAR was tested, and the protein stability index was 0.641 ± 0.018. With PRSLPSFHPPFH the protein stability index was 0.658 ± 0.074. PRSPHPLPPTPP was tested, and the protein stability index was 0.666 ± 0.0084. Sequence PRSPPPPPSYSP has a protein stability index of 0.703 ± 0.13. PRSSLPPPPSLP was tested, and the protein stability index was 0.686 ± 0.038. For PRTLTPVCPAPH, the protein stability index was 0.702 ± 0.015. In the case of PSALSEQQANGF, the protein stability index is reported as 0.6838 ± 0.0022. With PSAPPTPLAPSH the protein stability index was 0.678 ± 0.028. For PSASPPPPARQP, the protein stability index was 0.672 ± 0.057. For PSASRILSPPLP, the protein stability index was 0.649 ± 0.016. In the case of PSCCPPATLPPP, the protein stability index is reported as 0.687 ± 0.056. Work on PSCFFPFPPRPL yielded a protein stability index of 0.727 ± 0.04. PSDTSHPAWRAN showed a protein stability index of 0.708 ± 0.025. PSFPLLPPPSLS gave a protein stability index of 0.6913 ± 0.0051. In the case of PSFPPLPLSTPP, the protein stability index is reported as 0.762 ± 0.063. For PSFPRSPHTAPH, the protein stability index was 0.746 ± 0.022. Sequence PSFPSLLPPPPT has a protein stability index of 0.703 ± 0.025. In the case of PSGGRGSRWWGV, the protein stability index is reported as 0.7348 ± 0.006. PSGGSQSLGRLG was tested, and the protein stability index was 0.634 ± 0.034. Sequence PSGPSTVLPSPL has a protein stability index of 0.6866 ± 0.0065. For PSGSVLAEGRGP, the protein stability index was 0.678 ± 0.077. With PSHPPPPSPTPP the protein stability index was 0.754 ± 0.024. Sequence PSHTPLPPSSLS has a protein stability index of 0.763 ± 0.089. PSISSTSPLPRP gave a protein stability index of 0.633 ± 0.039. Sequence PSLLPPRVCRPS has a protein stability index of 0.68 ± 0.089. With PSLPHLPSTSSC the protein stability index was 0.681 ± 0.023. PSLPLPPPPAHP showed a protein stability index of 0.65 ± 0.02. Sequence PSLPPRPQLVHS has a protein stability index of 0.596 ± 0.017. In the case of PSLRLPVSVPTL, the protein stability index is reported as 0.717 ± 0.018. Sequence PSNNHRPPGCAD has a protein stability index of 0.685 ± 0.023. PSPAAPSPPCLP showed a protein stability index of 0.64 ± 0.045. For PSPAHLPPRSPL, the protein stability index was 0.714 ± 0.2. PSPAPFPSSPSL was tested, and the protein stability index was 0.687 ± 0.0073. Work on PSPAPLASPPRA yielded a protein stability index of 0.693 ± 0.042. Work on PSPAPPSPPSPP yielded a protein stability index of 0.679 ± 0.028. PSPASPTPPLVQ showed a protein stability index of 0.682 ± 0.067. Work on PSPATCGSSFSK yielded a protein stability index of 0.734 ± 0.056. Work on PSPATCLCSPLP yielded a protein stability index of 0.7057 ± 0.0019. In the case of PSPFFSRPSYLS, the protein stability index is reported as 0.718 ± 0.026. For PSPHHHYTPPST, the protein stability index was 0.681 ± 0.0073. In the case of PSPHLHPPPLPP, the protein stability index is reported as 0.641 ± 0.0047. Work on PSPLPLSPLPFS yielded a protein stability index of 0.687 ± 0.04. For PSPLRPSPAVPS, the protein stability index was 0.716 ± 0.064. Work on PSPLRRSTPPCL yielded a protein stability index of 0.709 ± 0.13. In the case of PSPPAPPRGLLP, the protein stability index is reported as 0.704 ± 0.03. In the case of PSPPDTDTPIPL, the protein stability index is reported as 0.691 ± 0.034. Work on PSPPHPPPPSPY yielded a protein stability index of 0.753 ± 0.097. PSPPLPRPLSPP gave a protein stability index of 0.72 ± 0.045. PSPPPLGPLPAL gave a protein stability index of 0.667 ± 0.037. PSPPPLPPLPPP was tested, and the protein stability index was 0.764 ± 0.12. PSPPPSSAPYPS showed a protein stability index of 0.609 ± 0.077. Work on PSPPRAPSTPLI yielded a protein stability index of 0.744 ± 0.06. PSPPSAKLRRTP showed a protein stability index of 0.72 ± 0.057. For PSPPSPPPAPPP, the protein stability index was 0.643 ± 0.1. In the case of PSPQPTRPPGPL, the protein stability index is reported as 0.704 ± 0.039. With PSPSLPSACARP the protein stability index was 0.701 ± 0.012. PSPTPLPSPRLP gave a protein stability index of 0.676 ± 0.098. Work on PSPTRPPAYPRS yielded a protein stability index of 0.672 ± 0.11. PSPTTSRFAPPP showed a protein stability index of 0.53 ± 0.047. PSRAPQGRADNT showed a protein stability index of 0.69 ± 0.11. With PSRGPGRVAPCD the protein stability index was 0.641 ± 0.013. For PSRKFYSRHFPP, the protein stability index was 0.671 ± 0.028. PSRSPPPLPAPH showed a protein stability index of 0.69 ± 0.011. PSRVRPLRLVLP gave a protein stability index of 0.614 ± 0.033. Work on PSSLATFLPWPI yielded a protein stability index of 0.739 ± 0.039. Work on PSSPLLGPPPPD yielded a protein stability index of 0.677 ± 0.01. Sequence PSSSVICLLPPA has a protein stability index of 0.636 ± 0.04. In the case of PSSVRPFDPLLC, the protein stability index is reported as 0.724 ± 0.063. Work on PSTRPQYLFLPP yielded a protein stability index of 0.635 ± 0.016. PSVPLLPPAPLS gave a protein stability index of 0.784 ± 0.075. PSVRRLPARRRT was tested, and the protein stability index was 0.626 ± 0.066. Work on PSVSPLFSSPPP yielded a protein stability index of 0.719 ± 0.012. PSWPRLSFRPST gave a protein stability index of 0.689 ± 0.022. For PSYRVVVFSLPD, the protein stability index was 0.758 ± 0.063. With PTCPAPLPPSSP the protein stability index was 0.699 ± 0.061. In the case of PTETRRIGHHEG, the protein stability index is reported as 0.661 ± 0.043. PTGPPPPSLGPP was tested, and the protein stability index was 0.694 ± 0.021. PTLHVGPGTPHA was tested, and the protein stability index was 0.705 ± 0.058. In the case of PTLPSRYPPPMF, the protein stability index is reported as 0.751 ± 0.01. In the case of PTLPTLFPSSSL, the protein stability index is reported as 0.7448 ± 0.0045. For PTLSSRPPPYPR, the protein stability index was 0.642 ± 0.048. With PTNPPLSQPPPQ the protein stability index was 0.702 ± 0.039. For PTPGGLIIVLGS, the protein stability index was 0.6322 ± 0.0041. Sequence PTPHLHPTSLPG has a protein stability index of 0.724 ± 0.1. With PTPLCPPLAVRL the protein stability index was 0.691 ± 0.032. In the case of PTPLPSPCPAPP, the protein stability index is reported as 0.703 ± 0.025. With PTRRVHRTPLFP the protein stability index was 0.778 ± 0.13. PTSFPAPNLPPD showed a protein stability index of 0.669 ± 0.0045. PTSVRPPRRRPR showed a protein stability index of 0.745 ± 0.089. For PTTQVGRRTPLA, the protein stability index was 0.647 ± 0.029. PTVGGGLDGVGR showed a protein stability index of 0.669 ± 0.063. PTWGRSDESKAM was tested, and the protein stability index was 0.744 ± 0.0099. With PVASGYTMWSCV the protein stability index was 0.693 ± 0.015. PVEAPVGLVCAK was tested, and the protein stability index was 0.568 ± 0.011. PVFPLTLPAFSS was tested, and the protein stability index was 0.815 ± 0.018. With PVGWRGGYVGGR the protein stability index was 0.666 ± 0.092. Work on PVHFLPTPRAPL yielded a protein stability index of 0.686 ± 0.039. With PVLGRFGSTFVV the protein stability index was 0.674 ± 0.059. PVLGYLTRGLWL showed a protein stability index of 0.721 ± 0.015. For PVLMTHPYFASS, the protein stability index was 0.725 ± 0.0083. PVLPPLLPLPCL was tested, and the protein stability index was 0.644 ± 0.044. PVLRPPPPLSPP showed a protein stability index of 0.734 ± 0.021. PVNQRPDGGNQD showed a protein stability index of 0.764 ± 0.016. PVPERTSAEPPG showed a protein stability index of 0.618 ± 0.038. PVPLSALPPLPP showed a protein stability index of 0.746 ± 0.034. In the case of PVPMVPTYPPSP, the protein stability index is reported as 0.736 ± 0.044. For PVPPFDGLVPAL, the protein stability index was 0.728 ± 0.089. Sequence PVPPPPPPPPPL has a protein stability index of 0.667 ± 0.0059. Sequence PVRCSDLDLTFL has a protein stability index of 0.774 ± 0.054. Sequence PVRDGFSLCFVL has a protein stability index of 0.761 ± 0.14. For PVRIQTFLFCVP, the protein stability index was 0.595 ± 0.012. For PVRRAHPPPPRP, the protein stability index was 0.674 ± 0.014. For PVRVRGRGGCGG, the protein stability index was 0.684 ± 0.11. With PVSCLGNQACYV the protein stability index was 0.628 ± 0.073. Sequence PVSLPPSLRRPS has a protein stability index of 0.736 ± 0.034. PVTRRDVDLPPP was tested, and the protein stability index was 0.706 ± 0.039. PVTTYPPQRHIA was tested, and the protein stability index was 0.593 ± 0.03. In the case of PVVTGGFHIVGF, the protein stability index is reported as 0.793 ± 0.078. With PWPGSWALFCFI the protein stability index was 0.719 ± 0.15. PWPPRPPPPPSL gave a protein stability index of 0.694 ± 0.048. For PWRPRMAGVDYR, the protein stability index was 0.867 ± 0.13. With PWTSSTTSRFPS the protein stability index was 0.727 ± 0.033. For PYHVPTPRATNR, the protein stability index was 0.659 ± 0.026. Sequence PYTHDRTTSPVF has a protein stability index of 0.762 ± 0.12. For PYWVPSKSSLSP, the protein stability index was 0.742 ± 0.068. QAGALTTIPTFA gave a protein stability index of 0.616 ± 0.019. In the case of QAYGFEDISFSI, the protein stability index is reported as 0.808 ± 0.076. Work on QCYNGSSGVSNL yielded a protein stability index of 0.676 ± 0.028. In the case of QDSETYSNEAGL, the protein stability index is reported as 0.669 ± 0.031. In the case of QFFVVLVSHEGR, the protein stability index is reported as 0.63 ± 0.011. Work on QFRCAIFRLSFV yielded a protein stability index of 0.613 ± 0.023. QFTFPPGTSAPV was tested, and the protein stability index was 0.66 ± 0.032. Sequence QGGGGGGVCGMV has a protein stability index of 0.721 ± 0.011. With QGLSFVSVSPRP the protein stability index was 0.795 ± 0.029. With QGPPPTPASHGP the protein stability index was 0.672 ± 0.026. With QGRPPADRATAV the protein stability index was 0.755 ± 0.029. QGSAGRHVRTNL showed a protein stability index of 0.701 ± 0.06. In the case of QIISSVFEATSY, the protein stability index is reported as 0.606 ± 0.037. For QKAQLISQVNTG, the protein stability index was 0.6682 ± 0.0065. In the case of QKDLVGSKSEYE, the protein stability index is reported as 0.735 ± 0.058. Work on QKGGGGEVGAEG yielded a protein stability index of 0.699 ± 0.066. For QKIIKKIQTIVD, the protein stability index was 0.697 ± 0.027. Sequence QKKKKKKKRKKT has a protein stability index of 0.59 ± 0.062. In the case of QKKKKRKDKRTK, the protein stability index is reported as 0.7067 ± 0.0053. For QKPKDKKKRTKE, the protein stability index was 0.679 ± 0.05. Work on QLETAIEEKNNE yielded a protein stability index of 0.704 ± 0.0087. QLFAYFLGAVIL showed a protein stability index of 0.611 ± 0.023. QLGRVSRLVGVC showed a protein stability index of 0.537 ± 0.0081. For QLLCLFSIPRSA, the protein stability index was 0.7241 ± 0.0043. Work on QLPALPPLHSSP yielded a protein stability index of 0.6982 ± 0.0022. With QLVCCAKCGAVG the protein stability index was 0.665 ± 0.035. In the case of QLVSNNCSLVMC, the protein stability index is reported as 0.532 ± 0.02. QMGGGGEVGAEG gave a protein stability index of 0.724 ± 0.009. QMSAATLLFSRL gave a protein stability index of 0.734 ± 0.029. Work on QMTSRVPIGRLY yielded a protein stability index of 0.696 ± 0.0035. QNKKKEKKQEIQ gave a protein stability index of 0.7 ± 0.042. QPGPPPRPHVQP showed a protein stability index of 0.676 ± 0.048. Work on QPGTRRNNHIQV yielded a protein stability index of 0.704 ± 0.026.
